Results on 4 molecules are retold here after patent US20180311369A1 (WRIGHT STATE UNIVERSITY, published 2018).

Broadly, the Kd is the constant that tells how readily two partners part at equilibrium. Low values mean tighter binding, high ones weaker binding.

Assay [1] has as its target T1, MAGI-1 PDZ3 domain (Rattus norvegicus (Rat), UniProt Q4L1J4 846-921, limits assumed). The assay can be described thus: ligand binding assay with purified PDZ domain.
Assay [2] concerns the target T2, MAGI-1 PDZ1 domain (Rattus norvegicus (Rat), UniProt Q4L1J4 475-542, limits assumed).
T2 construct: also called MAGI-PDZ-1
The assay can be described thus: ligand binding assay with purified MAGI-1 PDZ1.

The target of assay [3] is T1, MAGI-1 PDZ3 domain. The assay can be described thus: ligand binding assay with purified MAGI-1 PDZ3.
In assay [4] the target is T2, MAGI-1 PDZ1 domain. The assay can be described thus: ligand binding assay with purified PDZ domain.

T2 sequence (Q4L1J4 475-542 limits assumed): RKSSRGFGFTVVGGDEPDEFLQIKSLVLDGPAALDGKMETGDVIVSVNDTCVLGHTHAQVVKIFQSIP
T1 sequence (Q4L1J4 846-921 limits assumed): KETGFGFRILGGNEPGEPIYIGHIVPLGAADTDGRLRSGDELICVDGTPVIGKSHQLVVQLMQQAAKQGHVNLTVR

For the molecule GRKKRRQRRRPPQGGKKKETLV (also called TAT-PDZ1 peptide) [TAT-NET1], the binding result in assay [1] was “no binding”. This molecule yielded a Kd in assay [2] of 28 nM.

In the case of GRKKRRQRRRPPQAQSQAGSLV (also called TAT-PDZ3 peptide) [TAT-ESAM], the Kd in assay [3] is 17 nM. In assay [4], the binding result is “no binding”.

On to GRKKRRQRRRPPQYKTDGITVV (also called TAT-PDZ3 peptide) [TAT-CAR^Ex8], for which the figures for the Kd in assay [3] and in assay [2] were 4 nM and 23 nM, respectively.

As to GRKKRRQRRRPPQSRTRRETQL (also called TAT-E6) [TAT-HPV E6], the binding result in assay [1] is given as “no binding”. Further, binding in assay [2] was put at a Kd of 15 nM.
